Results as given in patent WO2001000678A1 (dated 2001).

Target: HIV-1 MN viral lysate (native gp120) (HIV-1 isolate MN, UniProt P05877 32-513)
Assay: ELISA, biotinylated Fab on viral lysate; reference HIV-1 IIIb lysate

B1: Fab 7 (Fab, V domains shown)
VH: EVQLQESGPGLVKPSETLSLTCTVSGGSISSSSYYWGWIRQPPGKGLEWIGSIYYSGSTYYNPSLKSRVTISVDTSKNQFSLKLSSVTAAYTAVYYCARRCTSGVCYGAFDYWGQGTPVTVSS
VL: DLVMTQSPSFLSASVGDRVTITCRASQGISSYLAWYQQKSGKAPKLLIYGTSILQSGVPSRFSGSGSGTESTLTISSLQPEDFATYYCQQLNSYPITFGQGTRLEIK
  binding relative to the level seen with IIIb: ~50%
